# Experimental data reported in EP4714971A1 (Shanghai Hansoh Biomedical Co., Ltd., dated 2024).
# Changes are numbered by the printed parent chain.
# T1: human SEZ6 expressed on stably transfected CHO-K1 cells (human, UniProt Q53EL9 20-994)
# T1 construct: also called CHO-SEZ6; hSEZ6
# T1 sequence: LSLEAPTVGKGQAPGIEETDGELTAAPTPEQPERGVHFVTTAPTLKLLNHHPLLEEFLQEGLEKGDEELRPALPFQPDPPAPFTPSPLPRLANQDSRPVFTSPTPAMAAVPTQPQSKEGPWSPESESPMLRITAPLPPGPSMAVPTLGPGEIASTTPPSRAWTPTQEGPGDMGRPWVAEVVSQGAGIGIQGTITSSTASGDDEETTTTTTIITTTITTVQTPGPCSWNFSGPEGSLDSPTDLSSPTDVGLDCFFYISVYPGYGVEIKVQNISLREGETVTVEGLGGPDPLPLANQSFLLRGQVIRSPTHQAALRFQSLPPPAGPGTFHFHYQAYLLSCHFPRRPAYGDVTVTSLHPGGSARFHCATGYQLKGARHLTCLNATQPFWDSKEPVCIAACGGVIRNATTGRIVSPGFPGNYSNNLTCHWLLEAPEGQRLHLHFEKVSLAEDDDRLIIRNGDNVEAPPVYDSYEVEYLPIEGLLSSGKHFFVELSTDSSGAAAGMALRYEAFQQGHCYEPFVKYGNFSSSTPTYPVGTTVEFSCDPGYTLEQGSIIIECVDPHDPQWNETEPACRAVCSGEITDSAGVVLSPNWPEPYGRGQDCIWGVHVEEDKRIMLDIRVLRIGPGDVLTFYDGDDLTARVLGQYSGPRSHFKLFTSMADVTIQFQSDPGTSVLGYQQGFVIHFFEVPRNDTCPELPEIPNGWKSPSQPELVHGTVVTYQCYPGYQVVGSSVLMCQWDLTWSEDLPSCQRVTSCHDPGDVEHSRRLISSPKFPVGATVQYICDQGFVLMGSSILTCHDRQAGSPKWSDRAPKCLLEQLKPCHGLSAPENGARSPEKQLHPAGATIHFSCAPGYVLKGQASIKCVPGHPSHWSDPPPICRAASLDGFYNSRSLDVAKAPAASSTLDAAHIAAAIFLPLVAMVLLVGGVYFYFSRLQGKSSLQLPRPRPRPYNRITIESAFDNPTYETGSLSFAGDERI
# T2: cynomolgus monkey SEZ6 expressed on stably transfected CHO-K1 cells (cynomolgus monkey, UniProt Q53EL9 20-994 (human entry))
# T2 construct: also called CHO-cynoSEZ6; monkey SEZ6 on the cell membrane
# T2 chain: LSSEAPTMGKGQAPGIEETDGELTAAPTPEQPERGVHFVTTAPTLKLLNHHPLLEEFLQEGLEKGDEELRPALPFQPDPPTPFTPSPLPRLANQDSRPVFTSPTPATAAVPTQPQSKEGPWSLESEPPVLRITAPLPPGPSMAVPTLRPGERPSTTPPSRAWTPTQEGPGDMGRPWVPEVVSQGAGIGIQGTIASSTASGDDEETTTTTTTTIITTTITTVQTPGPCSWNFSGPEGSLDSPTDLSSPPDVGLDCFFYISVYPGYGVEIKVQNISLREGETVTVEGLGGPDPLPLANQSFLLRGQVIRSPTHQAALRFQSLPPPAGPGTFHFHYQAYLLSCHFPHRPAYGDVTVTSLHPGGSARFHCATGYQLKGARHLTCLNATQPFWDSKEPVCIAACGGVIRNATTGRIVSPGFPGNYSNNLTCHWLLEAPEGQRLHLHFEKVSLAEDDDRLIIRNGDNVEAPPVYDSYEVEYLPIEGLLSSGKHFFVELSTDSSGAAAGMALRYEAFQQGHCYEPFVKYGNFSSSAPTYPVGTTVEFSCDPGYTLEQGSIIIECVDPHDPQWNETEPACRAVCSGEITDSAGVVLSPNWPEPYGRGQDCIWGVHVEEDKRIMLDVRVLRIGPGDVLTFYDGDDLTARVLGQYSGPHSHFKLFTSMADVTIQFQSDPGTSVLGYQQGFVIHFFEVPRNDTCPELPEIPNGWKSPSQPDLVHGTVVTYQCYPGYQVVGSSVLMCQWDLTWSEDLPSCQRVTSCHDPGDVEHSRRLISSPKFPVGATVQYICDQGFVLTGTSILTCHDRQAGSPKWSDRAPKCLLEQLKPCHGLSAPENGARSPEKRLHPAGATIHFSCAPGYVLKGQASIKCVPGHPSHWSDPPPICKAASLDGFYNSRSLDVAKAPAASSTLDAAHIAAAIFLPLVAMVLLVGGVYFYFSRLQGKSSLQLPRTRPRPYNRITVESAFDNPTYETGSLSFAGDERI
# B1: cAb025 (Fc fusion)
# VHH: EVQLVESGGGSVQPGGSLRLSCEASGLTYNKDCMAWFRQAPGKEREGVAIINGVGRTRYADSVKGRFTISKDNAKNTLYLQMNNLKPEDTAMYYCAAQRASSSCGSLSRAWYDYWGRGTQVTVSS
# notes: VHH-hFc expressed in 293 cells; Parent of PR0069; also called chimeric nanobody; camel-derived SEZ6 chimeric antibody; not shown: The human Fc (hFc) of the VHH-hFc construct
# B2: cAb314 (Fc fusion)
# VHH: HVQLVESGGGSVQAGGSLRLSCAVSGFTSSRGWMAWFRQAPGKEREGVAVIGRRSGDIYYADSLKGRFTISHDSTENTLYLQMNNLKPEDTATYYCAVGDQAGHVLTSSPYRYWGQGTQVTVSS
# notes: VHH-hFc expressed in 293 cells; Parent of PR0071; also called chimeric nanobody; camel-derived SEZ6 chimeric antibody; not shown: The human Fc (hFc) of the VHH-hFc construct
# B3: cAb3006 (antibody, V domains shown)
# VH: QVQLQQSGAELARPGASVTLSCKASGYTFTDYEMHWVKETPVDGLEWIGGIDPETDNTVYNQKFKVKAILTEDKSSRIAYMELRSLTSEDSAVYYCTRGDWYFDVWGTGTTVTVSS
# VL: DIVMSQSPSSQAVSVGEKVTMSCKSSQSLLNSRTRENYLAWYQQKAGQSPKLLIYWASTRDSGVPDRFTGSGSGTDFTLTINSVQAEDLAVYYCKQSYNLFTFGSGTKLEIK
# B4: cAb3009 (antibody, V domains shown)
# VH: QVQLQQSGAELVRPGASVTLSCKASGYTFTDYEMHWVRQTPVHGLEWIGGIDPESDNTVYNQKFKGKVTLTEDKSSSTAYMEFRSLTSEDSAVYYCTRGDWYFDVWGTGTTVTVSS
# VL: B3 VL with S22T, A46P, D61E, T75A, N82S, K95G
# B5: cAb3014 (antibody, V domains shown)
# VH: QVQLQQPGAELVKPGASVKLSCKASGYTFSIYWMHWVKQRPGQGLEWIGMIHPNSGSTNYNEKFKSKATLTVDKSSSTAYMQLSSLTSEDSAVYYCARGGNYVAMDYWGQGTSVTVSS
# VL: QIVLTQSPAIMSASLGERVTMTCTASSSVSSSYLHWYQQKPGSSPKLWIYSTSNLASGVPARFSGSGSGTSYSLTISSMEAEDAATYYCHQYHRSLTFGSGTKLEIK
# B6: cAb3003 (antibody, V domains shown)
# VH: B4 VH with D31G, R38K, S55T, V68A, T69I, F83L, S85R, V105I
# VL: B3 VL with M4L, A46P, D61E, N82S, K95Q, K108I
# B7: cAb3031 (antibody, V domains shown)
# VH: DVQLQESGPGLVKPSQSLSLTCSVTGQSITSGYFWNWIRQLPGNKLEWMGHIRYDGNNNYNPSLKNRVSITRDTSKNQFFLKLNSVTTEDTATYYCARWLLRYYAMDSWGQGTSVTVSS
# VL: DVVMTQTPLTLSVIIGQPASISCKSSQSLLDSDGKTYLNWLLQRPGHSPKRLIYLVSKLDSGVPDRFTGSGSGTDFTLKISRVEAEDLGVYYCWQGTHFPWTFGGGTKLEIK
# B8: cAb3034 (antibody, V domains shown)
# VH: QVQLQQSGAELARPGASVKMSCKASGYTFTSYTMHWVKQRPGQGLEWIGYINPRSDYTKYNQKVKDKATLTADKSSSTAYMQLSSLTSEDSAVYYCARGGLGLDYWGQGTTLTVSS
# VL: DIQMTQSPSSLSASLGERVSLTCRASQEISGYLSWLQQTPDGTIKRLIYAASTLHSGVPKRFSGSRSGSDYSLTISSLESEDFAGYYCLQYASYPYTFGGGTKLEIK
# B9: cAb3046 (antibody, V domains shown)
# VH: QVQLQQSGAELARPGASVKMSCKASGYTFTSYTMHWVKQRPGQGLEWIGYINPSSDYTKYNQKFKGKATMTADKSSSTAYMQLSSLTSEDSAVYYCGRGLVPFAYWGQGTLVTVSA
# VL: B8 VL with S34I, T39K, H55D, F62V, G85D, Y96L, I106L
# B10: cAb3056 (antibody, V domains shown)
# VH: QVQLQQSGPELMKPGASVKISCKASGYTFTDYYINWMKQRPGQGLEWIGWIFPGSDNPYYNEMFKDKATVSVDKSSSAVFMLLTSLTSEDSAVYFCARGRYYGLYTMDYWGQGTSVTVSS
# VL: DIQMTQTTSSLSASLGDRVTISCRASQDIRNYLNWYQQKADGTVKFLIYYTSRLHSGVPSRFSGSGSGTDFSLTISNLEQEDVATYFCQQGNTLPWTFGGGTKVEIK
# B11: cAb3005 (antibody, V domains shown)
# VH: B3 VH with T28K, D43N, D56E, I78T
# VL: B3 VL with D76A
# B12: PR3121 (antibody, human IgG1, kappa, V domains shown)
# VH: EVQLVQSGAEVKKPGSSVKVSCKASGYTFSIYWMHWVRQAPGQGLEWIGMIHPNSGSTNYNEKFKSRATLTVDKSTSTAYMELSSLRSEDTAVYYCARGGNYVAMDYWGQGTLVTVSS
# VL: DIQMTQSPSSLSASVGDRVTITCTASSSVSSSYLHWYQQKPGKAPKLLIYSTSNLASGVPSRFSGSGSGTDFTLTISSLQPEDFATYYCHQYHRSLTFGGGTKVEIKR
# notes: Humanized, human IgG1, kappa; also called humanized antibody of cAb3014
# B13: PR3123 (antibody, human IgG1, kappa, V domains shown)
# VH: B12 VH
# VL: B12 VL with M4L, I21M, A44S, L48W, F72Y
# notes: Humanized, human IgG1, kappa; Only the order of listing separates it from PR3121; also called humanized antibody of cAb3014
# B14: PR3132 (antibody, human IgG1, kappa, V domains shown)
# VH: EVQLVQSGAEVKKPGASVKISCKASGYTFTDYYINWMRQAPGQGLEWIGWIFPGSDNPYYNEMFKDRVTVTVDKSTSTVYMELSSLRSEDTAVYFCARGRYYGLYTMDYWGQGTLVTVSS
# VL: DIQMTQSPSSLSASVGDRVTITCRASQDIRNYLNWYQQKPGKAPKFLIYYTSRLHSGVPSRFSGSGSGTDFTLTISSLQPEDFATYYCQQGNTLPWTFGGGTKVEIKR
# notes: Humanized, human IgG1, kappa; also called humanized antibody of cAb3056
# Biological target: T1, human SEZ6 expressed on stably …
# Experiment: flow cytometry on CHO-K1 cells expressing human SEZ6
EC50 [nM],MFImax,Binder
0.23,6600,B1
0.38,8480,B2

# Biological target: T2, cynomolgus monkey SEZ6 expressed on …
# Experiment: flow cytometry on CHO-K1 cells expressing cynomolgus monkey SEZ6
EC50 [nM],MFImax,Binder
0.41,15000,B3
0.43,15600,B4
0.65,13400,B5
0.42,14300,B6
0.54,15200,B7
0.37,17300,B8
0.48,16200,B9
0.95,14600,B10
0.41,14700,B11

# Biological target: T1, human SEZ6 expressed on stably …
# Experiment: flow cytometry on CHO-K1 cells expressing human SEZ6
# Remark: another data set of the same source
EC50 [nM],MFImax,Binder
0.45,1020,B12
0.56,966,B13
1.72,1210,B14

# Biological target: T1, human SEZ6 expressed on stably …
# Experiment: as above
# Remark: another data set of the same source
EC50 [nM],MFImax,Binder
0.35,4830,B3
0.81,5420,B4
0.85,3030,B5
0.68,5110,B6
0.42,5180,B7
0.13,10100,B8
0.06,5180,B9
0.42,6560,B10
0.52,4920,B11
